In one data set the target is T1, Lon4E (Caulobacter crescentus, UniProt P0CAW0 1-799, K301E;K303E;K305E;K306E).
T1 sequence: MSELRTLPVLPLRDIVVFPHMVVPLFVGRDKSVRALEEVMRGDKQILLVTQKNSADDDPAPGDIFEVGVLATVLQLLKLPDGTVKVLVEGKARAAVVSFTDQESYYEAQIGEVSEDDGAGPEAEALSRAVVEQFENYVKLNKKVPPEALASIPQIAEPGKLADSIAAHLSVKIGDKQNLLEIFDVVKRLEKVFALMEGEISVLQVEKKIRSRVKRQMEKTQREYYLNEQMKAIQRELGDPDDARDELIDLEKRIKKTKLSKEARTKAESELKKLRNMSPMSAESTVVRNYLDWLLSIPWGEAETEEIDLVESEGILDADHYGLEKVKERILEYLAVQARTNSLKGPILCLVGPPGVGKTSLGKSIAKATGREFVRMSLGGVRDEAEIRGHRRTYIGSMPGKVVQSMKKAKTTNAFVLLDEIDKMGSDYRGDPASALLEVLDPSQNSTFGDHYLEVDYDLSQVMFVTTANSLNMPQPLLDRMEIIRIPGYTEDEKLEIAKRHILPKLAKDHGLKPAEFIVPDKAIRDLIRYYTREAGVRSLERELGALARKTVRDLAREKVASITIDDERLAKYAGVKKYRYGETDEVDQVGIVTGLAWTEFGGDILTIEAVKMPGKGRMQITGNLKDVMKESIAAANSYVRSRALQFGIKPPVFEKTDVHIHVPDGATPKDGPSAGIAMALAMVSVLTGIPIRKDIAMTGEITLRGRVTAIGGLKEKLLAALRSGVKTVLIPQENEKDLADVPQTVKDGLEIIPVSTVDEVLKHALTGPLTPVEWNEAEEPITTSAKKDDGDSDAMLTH
Put plainly: fluorescence polarization; 0.1 uM Lon4E, 25 nM FAM-ssDNA; FP: 25 mM HEPES pH 7.5, 10 mM MgCl2, 100 mM KCl, 0.05% Tween-20, 30 C, 0.1 uM Lon (hexamer), 25 nM DNA; mass photometry in TK buffer, 200 nM Lon. Particulars: protein: recombinant; chain copies: 6; label: FAM (printed at 5' side).

The next data set concerns the target T2, Lon4A (Caulobacter crescentus, UniProt P0CAW0 1-799, K301A;K303A;K305A;K306A).
T2 sequence: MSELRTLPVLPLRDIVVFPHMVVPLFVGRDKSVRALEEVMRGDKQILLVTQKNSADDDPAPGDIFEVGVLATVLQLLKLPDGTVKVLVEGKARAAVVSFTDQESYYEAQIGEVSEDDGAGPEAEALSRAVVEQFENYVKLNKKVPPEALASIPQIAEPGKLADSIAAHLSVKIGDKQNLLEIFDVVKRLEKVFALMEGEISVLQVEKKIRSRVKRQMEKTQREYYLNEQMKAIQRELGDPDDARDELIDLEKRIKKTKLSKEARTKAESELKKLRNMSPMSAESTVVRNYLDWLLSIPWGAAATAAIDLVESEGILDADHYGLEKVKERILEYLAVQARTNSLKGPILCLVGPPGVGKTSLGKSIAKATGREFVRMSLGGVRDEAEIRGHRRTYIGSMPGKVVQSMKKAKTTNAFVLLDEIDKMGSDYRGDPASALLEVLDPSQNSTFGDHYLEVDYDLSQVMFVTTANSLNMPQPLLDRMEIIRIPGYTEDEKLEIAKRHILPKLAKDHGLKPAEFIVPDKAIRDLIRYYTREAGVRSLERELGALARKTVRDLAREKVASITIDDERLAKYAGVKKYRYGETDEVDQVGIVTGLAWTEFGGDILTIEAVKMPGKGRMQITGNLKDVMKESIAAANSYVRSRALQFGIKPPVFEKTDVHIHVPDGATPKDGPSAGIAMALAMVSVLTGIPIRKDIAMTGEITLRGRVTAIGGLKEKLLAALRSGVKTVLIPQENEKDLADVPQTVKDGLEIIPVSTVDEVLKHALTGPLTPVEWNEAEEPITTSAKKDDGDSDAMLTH
As to the kind of experiment: fluorescence polarization; 0.1 uM Lon4A, 25 nM FAM-ssDNA; FP: 25 mM HEPES pH 7.5, 10 mM MgCl2, 100 mM KCl, 0.05% Tween-20, 30 C, 0.1 uM Lon (hexamer), 25 nM DNA; mass photometry in TK buffer, 200 nM Lon. The conditions noted are these: protein: recombinant; chain copies: 6; label: FAM (printed at 5' side).

For the next data set, the target named is T3, Lon (wild type) (Caulobacter crescentus, UniProt P0CAW0 1-799).
T3 sequence: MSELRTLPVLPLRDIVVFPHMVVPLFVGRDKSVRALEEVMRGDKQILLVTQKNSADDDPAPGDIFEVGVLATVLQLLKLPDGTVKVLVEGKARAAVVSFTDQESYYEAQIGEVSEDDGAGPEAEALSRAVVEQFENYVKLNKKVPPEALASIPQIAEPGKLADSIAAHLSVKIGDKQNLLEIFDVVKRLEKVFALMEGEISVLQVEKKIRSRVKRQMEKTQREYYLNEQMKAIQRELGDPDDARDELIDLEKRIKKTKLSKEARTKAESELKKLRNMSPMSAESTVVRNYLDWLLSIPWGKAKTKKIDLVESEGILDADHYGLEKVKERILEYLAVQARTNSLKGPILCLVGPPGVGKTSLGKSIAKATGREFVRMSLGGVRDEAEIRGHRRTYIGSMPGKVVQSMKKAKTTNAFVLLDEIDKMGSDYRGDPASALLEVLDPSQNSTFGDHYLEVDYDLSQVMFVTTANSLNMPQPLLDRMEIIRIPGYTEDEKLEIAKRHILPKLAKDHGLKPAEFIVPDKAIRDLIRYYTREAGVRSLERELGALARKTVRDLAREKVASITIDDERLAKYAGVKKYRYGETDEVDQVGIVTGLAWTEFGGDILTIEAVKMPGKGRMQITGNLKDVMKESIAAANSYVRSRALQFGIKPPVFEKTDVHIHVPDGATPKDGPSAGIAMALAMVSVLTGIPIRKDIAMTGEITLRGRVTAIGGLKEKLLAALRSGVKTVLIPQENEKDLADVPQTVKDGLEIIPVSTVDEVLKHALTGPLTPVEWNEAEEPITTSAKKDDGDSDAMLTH
As to the kind of experiment: mass photometry; 200 nM Lon monomer; shift to HMW, median 592 kDa vs 515 kDa, consistent with one ssDNA per protomer; FP: 25 mM HEPES pH 7.5, 10 mM MgCl2, 100 mM KCl, 0.05% Tween-20, 30 C, 0.1 uM Lon (hexamer), 25 nM DNA; mass photometry in TK buffer, 200 nM Lon. Particulars: protein: recombinant; chain copies: 6.

This is an account of results in article PMC11719849, “Allosteric modulation of the Lon protease via ssDNA binding and local charge changes”.

On to AACGGATGATCCACAGGAGAGTCTGGCGCAGGGCGAGAG (ssDNA) [FAM-ssDNA (G1Box top strand)], for which the binding result with Lon4E and in the data set with Lon4A was “no binding” each time.

As to TCGATTCTCGAGTTAGTCGTCTTCTGGTGCCGGAAA (ssDNA) [OPC698-Stim], the binding result with Lon (wild type) is “binds”.
